Paper PMC7250872, “Repression of the lysogenic PR promoter in bacteriophage TP901-1 through binding of a CI-MOR complex to a composite OM-OR operator” (Scientific Reports, 2020)

What was measured:
[1] = target: MOR (Modulator Of Repression) of bacteriophage TP901-1, wild type, untagged (bacteriophage TP901-1) (UniProt O48504); test: cross-linking; 0.05% glutaraldehyde, room temperature, 0-60 min, 20 mM HEPES pH 7.5, 200 mM NaCl (100 mM salt by p-0027); CI about 20 uM, MOR 4 or 20 uM, alone or together; SDS PAGE, coomassie
[2] = target: T1, CI-NTD89-His6 (CI N-terminal domain 1-80 plus linker 81-89) (bacteriophage TP901-1, UniProt O48503 1-89); test: SEC; Superdex 75 Prep Grad, 20 mM Tris, 100 mM NaCl, pH 7.4; CI-NTD89 and MOR mixed in about 4:1 molar ratio; conditions: both partners purified
T1 construct: CI repressor, lactococcal bacteriophage TP901-1, N-terminal domain (1-80) and flexible linker (81-89); also called CI-NTD_(1-89); source: E. coli BL21 (pET30a(+)), purified (His-Trap, SEC)
T1 sequence (looked up): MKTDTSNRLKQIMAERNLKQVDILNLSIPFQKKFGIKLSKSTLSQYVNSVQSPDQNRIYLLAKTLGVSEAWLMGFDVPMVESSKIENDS

[3] = target: the molecule itself; test: cross-linking; 0.05% glutaraldehyde, room temperature, 0-60 min, 20 mM HEPES pH 7.5, 200 mM NaCl (100 mM salt by p-0027); CI about 20 uM, MOR 4 or 20 uM, alone or together; SDS PAGE, coomassie

Molecule: MOR (Modulator Of Repression) of bacteriophage TP901-1, wild type, untagged (from UniProt O48504 1-72) (natural protein)
- stoichiometry N [1]: 2

B1: MOR (1-72) released from GST-MOR by thrombin (natural protein, bacteriophage TP901-1, UniProt O48504 1-72, looked up)
chain: MSYDYSSLLGKITEKCGTQYNFAIAMGLSERTVSLKLNDKVTWKDDEILKAVHVLELNPQDIPKYFFNAKVH
notes: MOR (Modulator Of Repression), lactococcal bacteriophage TP901-1, residues 1-72; also called cleaved MOR; source: E. coli BL21 (pGEX4-2, GST-MOR), purified (GST-Trap, thrombin cleavage on the column, SEC)
- stoichiometry N [2]: 1

B2: CI repressor of bacteriophage TP901-1, wild type, untagged (natural protein, UniProt O48503 1-180, looked up)
chain: MKTDTSNRLKQIMAERNLKQVDILNLSIPFQKKFGIKLSKSTLSQYVNSVQSPDQNRIYLLAKTLGVSEAWLMGFDVPMVESSKIENDSENIEETITVMKKLEEPRQKVVLDTAKIQLKEQDEQNKVKQIEDYRLSDEYLEEQISKASAYGGGQLNDNDKEFFKRLLKNTLKEKIDKGDL
notes: CI repressor, lactococcal bacteriophage TP901-1; also called native CI repressor; full length CI; source: E. coli AJ159 (cI in expression vector pUHE23-2), in cell extract; also purified (eluted from the DNA pellet with 1 M NaCl; pooled fractions from Superdex gel filtration)
- stoichiometry N [3]: 2
